Data from ChEMBL document CHEMBL1147236, “Semiplenamides A-G, fatty acid amides from a Papua New Guinea collection of the marine cyanobacterium Lyngbya semiplena” (J Nat Prod, 2003).

Substrate: CCCCC/C=C\C/C=C\C/C=C\C/C=C\CCCC(=O)NCCO
Conditions: Mus musculus; N18TG2
Description: Activity at FAAH in mouse N18TG2 cell membranes

B1: Fatty-acid amide hydrolase 1 (Mus musculus), O08914 (protein)
chain: MVLSEVWTALSGLSGVCLACSLLSAAVVLRWTRSQTARGAVTRARQKQRAGLETMDKAVQRFRLQNPDLDSEALLALPLLQLVQKLQSGELSPEAVLFTYLGKAWEVNKGTNCVTSYLTDCETQLSQAPRQGLLYGVPVSLKECFSYKGHASTLGLSLNEGVTSESDCVVVQVLKLQGAVPFVHTNVPQSMLSYDCSNPLFGQTMNPWKPSKSPGGSSGGEGALIGSGGSPLGLGTDIGGSIRFPSAFCGICGLKPTGNRLSKSGLKSCVYGQTAVQLSVGPMARDVDSLALCMKALLCEDLFRLDSTIPPLPFREEIYRSSRPLRVGYYETDNYTMPTPAMRRAVMETKQSLEAAGHTLVPFLPNNIPYALEVLSAGGLFSDGGCSFLQNFKGDFVDPCLGDLVLVLKLPRWFKKLLSFLLKPLFPRLAAFLNSMCPRSAEKLWELQHEIEMYRQSVIAQWKAMNLDVVLTPMLGPALDLNTPGRATGAISYTVLYNCLDFPAGVVPVTTVTAEDDAQMEHYKGYFGDMWDNILKKGMKKGIGLPVAVQCVALPWQEELCLRFMREVERLMTPEKRPS
Q: With B1 as the protein, how does the Km read?
A: 15 µM
